# Assay results as given in patent US20050203007A1 (REGENTS OF THE UNIVERSITY OF MICHIGAN, published 2005).
# Residue numbers refer to the chain shown, from its start.
# B1: Asn50Asp-R4K1-eglin (designed binder)
# chain: SMGSELKSFPEVVGKTVDQAREYFTLHYPQYDVYFLPEGSRVTKDLRYDRVRVFYNPGTNVVNHVPHVG
# B2: Asp33Gly-R4K1-eglin (designed binder)
# chain: B1 chain with D32G, D49N
# B3: Asp33Ile-R4K1-eglin (designed binder)
# chain: B1 chain with D32I, D49N
# B4: Asp33Val-R4K1-eglin (designed binder)
# chain: B1 chain with D32V, D49N
# notes: R4K1 template; N-terminal Met removed
# B5: Glu39Cys-R4R1-eglin (designed binder)
# chain: B1 chain with E38C, K44R, D49N
# B6: Glu39Gly-R4R1-eglin (designed binder)
# chain: B1 chain with E38G, K44R, D49N
# B7: Glu39His-R4R1-eglin (designed binder)
# chain: B1 chain with E38H, K44R, D49N
# B8: Glu39Pro-R4R1-eglin (designed binder)
# chain: B1 chain with E38P, K44R, D49N
# B9: Glu39Ser-R4R1-eglin (designed binder)
# chain: B1 chain with E38S, K44R, D49N
# B10: Glu39Tyr-R4R1-eglin (designed binder)
# chain: B1 chain with E38Y, K44R, D49N
# B11: Glu49-R4R1-eglin (designed binder)
# chain: B1 chain with K44R, Y48E, D49N
# notes: R4R1 template; N-terminal Met removed
# B12: Gly40Ala-R4R1-eglin (designed binder)
# chain: B1 chain with G39A, K44R, D49N
# B13: Gly40Pro-R4R1-eglin (designed binder)
# chain: B1 chain with G39P, K44R, D49N
# B14: Leu37Gly-R4K1-eglin (designed binder)
# chain: B1 chain with L36G, D49N
# notes: as for B4
# B15: Leu47Val-R4R1-eglin (designed binder)
# chain: B1 chain with K44R, L46V, D49N
# B16: M4K1-eglin (designed binder)
# chain: B1 chain with R41M, D49N
# notes: N-terminal Met removed
# B17: Met49-R4R1-eglin (designed binder)
# chain: B1 chain with K44R, Y48M, D49N
# notes: as for B11
# B18: R4-eglin (designed binder)
# chain: B1 chain with K44L, D49N
# notes: N-terminal Met removed; also called R4L1-eglin
# B19: Ser49-R4R1-eglin (designed binder)
# chain: B1 chain with K44R, Y48S, D49N
# notes: as for B11
# B20: Trp49-R4R1-eglin (designed binder)
# chain: B1 chain with K44R, Y48W, D49N
# notes: as for B11
# B21: Tyr35Ile-R4R1-eglin (designed binder)
# chain: B1 chain with Y34I, K44R, D49N
# B22: Tyr49Ala-R4R1-eglin (designed binder)
# chain: B1 chain with K44R, Y48A, D49N
# notes: R4R1 template; N-terminal Met removed; also called Ala49-R4R1-
# Tests used:
# secreted, soluble furin [1] = molecular target: T1, secreted, soluble furin (human, UniProt P09958 108-715, limits assumed); assay: rapid furin inhibition assay; table lists substitutions with equal or enhanced inhibition of furin relative to the template
# T1 construct: Secreted, soluble construct; also called human furin
# T1 sequence (P09958 108-715 limits assumed): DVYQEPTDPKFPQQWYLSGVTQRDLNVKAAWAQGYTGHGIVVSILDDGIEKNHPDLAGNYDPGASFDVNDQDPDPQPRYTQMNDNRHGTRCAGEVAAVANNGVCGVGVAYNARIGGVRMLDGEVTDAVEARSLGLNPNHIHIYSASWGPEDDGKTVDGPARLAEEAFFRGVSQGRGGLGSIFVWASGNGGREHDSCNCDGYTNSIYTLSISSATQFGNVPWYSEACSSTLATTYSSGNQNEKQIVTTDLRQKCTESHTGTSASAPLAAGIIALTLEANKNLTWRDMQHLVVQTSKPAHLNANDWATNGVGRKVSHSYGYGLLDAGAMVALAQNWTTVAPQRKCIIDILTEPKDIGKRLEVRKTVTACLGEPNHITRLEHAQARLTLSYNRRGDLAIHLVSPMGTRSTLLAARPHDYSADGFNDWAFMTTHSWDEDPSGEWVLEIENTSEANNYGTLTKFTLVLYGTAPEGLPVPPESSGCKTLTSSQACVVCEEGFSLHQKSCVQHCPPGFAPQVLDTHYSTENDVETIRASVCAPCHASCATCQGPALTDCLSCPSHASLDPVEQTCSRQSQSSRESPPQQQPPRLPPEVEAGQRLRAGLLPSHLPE
# Method: 3. Rapid screening of libraries. Libraries were introduced into E. coli BL21 (DE3) cells and individual, cloned transformants were grown by shaking at 37° C. in 200 μl LB containing […] kanamycin in 96-well, 0.45 μm GHP membrane filter plates (Gelman) (FIG. 2). When O.D. 600 values reached 0.4, 60 μl of culture were transferred to secondary 96-well plates (Falcon), adjusted to 10% glycerol, and stored at −80° C. These frozen stocks served as master copies of the libraries. IPTG was added to the cultures to a final concentration of 1 mM, and the cultures were allowed to express eglin c variants for one hour in the filter plate. Expressed eglin c variants were extracted from the cells with 50 mM Tris-HCl pH 8.0 containing 2 mM EDTA following freezing and thawing. These extracts were collected as filtrates by centrifugation of the filter plate above a second plate. The filtrates, representing partially purified eglin c variants, were analyzed using a rapid fluorescence-based assay for processing enzyme inhibition as described below in Section 5. […] Frozen cells were cultured in 50 to 100 ml culture volumes, and DNA maxipreps were performed; the DNA preparations were then sequenced by automated DNA sequencing. Selected variants were expressed and purified on a larger scale, and affinities for furin or Kex2 were examined quantitatively (see below).
# 5. Rapid protease inhibition assay. Novel eglin variants were diluted 50-fold and incubated with secreted, soluble furin (0.5 nM) for 15 min in 96-well plates. The furin substrate (Boc-Arg-Val-Arg-Arg-MCA) was added, and release of AMC was monitored continuously in a 96-well fluorescence plate reader for 20 min, as described under Example 1. […] The plasmid DNA encoding such eglin c variant inhibitors were isolated and sequenced.
# secreted, soluble Kex2 [2] = molecular target: T2, secreted, soluble Kex2 (Saccharomyces cerevisiae, UniProt P13134 114-613, limits assumed); assay: enzyme inhibition, purified variant
# T2 construct: Secreted, soluble construct; also called kexin
# T2 sequence (looked up): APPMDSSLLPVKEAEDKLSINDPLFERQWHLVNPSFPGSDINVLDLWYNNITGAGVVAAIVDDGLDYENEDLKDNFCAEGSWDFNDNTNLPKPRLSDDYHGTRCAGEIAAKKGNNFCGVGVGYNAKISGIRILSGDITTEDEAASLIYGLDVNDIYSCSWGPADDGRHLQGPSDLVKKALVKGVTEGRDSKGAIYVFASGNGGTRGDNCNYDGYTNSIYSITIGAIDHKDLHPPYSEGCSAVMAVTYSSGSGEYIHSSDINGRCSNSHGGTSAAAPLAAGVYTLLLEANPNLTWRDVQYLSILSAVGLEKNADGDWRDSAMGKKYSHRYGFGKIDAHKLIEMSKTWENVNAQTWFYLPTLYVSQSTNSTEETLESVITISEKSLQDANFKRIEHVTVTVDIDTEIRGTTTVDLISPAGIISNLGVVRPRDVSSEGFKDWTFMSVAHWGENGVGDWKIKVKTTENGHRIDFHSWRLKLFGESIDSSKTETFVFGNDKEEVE
# Method: (§1) Affinities of eglin variants with secreted, soluble Kex2 (hereafter “Kex2”; Brenner, C. and Fuller, R. S. (1992) Proc. Natl. Acad. Sci. USA 89: 922-926) and secreted, soluble furin (hereafter, “furin”; Bravo, D. A. et al (1994) J. Biol. Chem. 269: 25830-25837; and Komiyama & Fuller (2000) Biochemistry 39: 15156-15165) were measured by incubating variants with the enzymes (˜0.5 to 2.0 nM) for 45 min to 1 h at 21° C. in one of two enzyme assay buffers. For Kex2, the buffer was 200 mM Bistris (pH 7.27) containing 1 mM CaCl₂ and 0.1% Triton X-100; and for furin, the buffer was 20 mM NaMES (pH 7.0) containing 1 mM CaCl₂ and 0.1% Triton X-100 for furin. 100 to 200 μL aliquots of reaction mixtures were transferred into triplicate wells of opaque 96 well plates (Costar), and residual enzyme activity was measured with an fmax fluorescence micro plate reader (Molecular Devices) by monitoring hydrolysis of a fluorogenic substrate Boc-Arg-Val-Arg-Arg-MCA. Data were graphically analyzed (KaleidaGraph) with an equation developed by Green and Work (1953). Site-directed mutagenesis at P2 and P6 of eglin c generated temporary inhibitors (Table 3) and exhausted possibility to improve affinity further with this approach.
# secreted, soluble furin [3] = molecular target: T1, secreted, soluble furin; assay: enzyme inhibition, purified variant
# Method: as §1
# secreted, soluble Kex2 [4] = molecular target: T2, secreted, soluble Kex2; assay: affinity of purified variants, enzyme inhibition
# secreted, soluble Kex2 [5] = molecular target: T2, secreted, soluble Kex2; assay: enzyme inhibition, purified variant; remark: listed apart in the source
# secreted, soluble furin [6] = molecular target: T1, secreted, soluble furin; assay: enzyme inhibition, purified variant; remark: listed apart in the source
# human PC7 = molecular target: T3, human PC7 (human, UniProt Q16549 142-667, limits assumed); assay: enzyme inhibition, purified variant
# T3 sequence (looked up): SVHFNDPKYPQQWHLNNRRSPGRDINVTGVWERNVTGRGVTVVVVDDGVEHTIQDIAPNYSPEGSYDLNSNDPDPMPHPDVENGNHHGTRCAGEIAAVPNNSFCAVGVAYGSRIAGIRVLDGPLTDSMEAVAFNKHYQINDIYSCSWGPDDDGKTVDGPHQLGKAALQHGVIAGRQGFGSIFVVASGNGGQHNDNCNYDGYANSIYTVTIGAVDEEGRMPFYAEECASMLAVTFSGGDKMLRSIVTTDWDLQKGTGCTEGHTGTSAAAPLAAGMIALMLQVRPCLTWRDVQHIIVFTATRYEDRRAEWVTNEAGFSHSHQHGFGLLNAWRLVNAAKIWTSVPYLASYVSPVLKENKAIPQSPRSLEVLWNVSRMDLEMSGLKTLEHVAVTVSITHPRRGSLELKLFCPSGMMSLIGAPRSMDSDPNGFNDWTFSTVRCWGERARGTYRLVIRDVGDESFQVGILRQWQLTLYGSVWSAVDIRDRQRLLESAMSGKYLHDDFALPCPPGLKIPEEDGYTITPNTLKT
# secreted, soluble Kex2 [7] = molecular target: T2, secreted, soluble Kex2; assay: equilibrium enzyme inhibition
# Method: (§2) Thus, R1-eglin refers to substitution of Arg at position P1.
# (§3) Affinities of eglin variants with secreted, soluble Kex2 (hereafter “Kex2”; Brenner, C. and Fuller, R. S. (1992) Proc. Natl. Acad. Sci. USA 89: 922-926) and secreted, soluble furin (hereafter, “furin”; Bravo, D. A. et al (1994) J. Biol. Chem. 269: 25830-25837; and Komiyama & Fuller (2000) Biochemistry 39: 15156-15165) were measured by incubating variants with the enzymes (˜0.5 to 2.0 nM) for 45 min to 1 h at 21° C. in one of two enzyme assay buffers. For Kex2, the buffer was 200 mM Bistris (pH 7.27) containing 1 mM CaCl₂ and 0.1% Triton X-100; and for furin, the buffer was 20 mM NaMES (pH 7.0) containing 1 mM CaCl₂ and 0.1% Triton X-100 for furin.
# secreted, soluble furin [8] = molecular target: T1, secreted, soluble furin; assay: equilibrium enzyme inhibition
# Method: as §2, §3
# secreted, soluble Kex2 [9] = molecular target: T2, secreted, soluble Kex2; assay: equilibrium enzyme inhibition, fluorogenic substrate
# Method: as §1
# secreted, soluble furin [10] = molecular target: T1, secreted, soluble furin; assay: as above
# Method: as §1
binder,measurement,setting,value
B1,binding result,"secreted, soluble furin [1]",binds
B2,binding result,"secreted, soluble furin [1]",binds
B3,binding result,"secreted, soluble furin [1]",binds
B4,Ki,"secreted, soluble Kex2 [2]",1.2 nM
same,Ki ratio (to R4K1- template),"secreted, soluble Kex2 [2]",0.476
same,Ki,"secreted, soluble furin [3]",17 nM
same,Ki ratio (to R4K1- template),"secreted, soluble furin [3]",0.455
B5,binding result,"secreted, soluble Kex2 [4]",binds
same,binding result,"secreted, soluble furin [1]",binds
B6,binding result,"secreted, soluble Kex2 [4]",binds
same,binding result,"secreted, soluble furin [1]",binds
B7,binding result,"secreted, soluble Kex2 [4]",binds
same,binding result,"secreted, soluble furin [1]",binds
B8,binding result,"secreted, soluble Kex2 [4]",binds
same,binding result,"secreted, soluble furin [1]",binds
B9,binding result,"secreted, soluble Kex2 [4]",binds
same,binding result,"secreted, soluble furin [1]",binds
B10,binding result,"secreted, soluble Kex2 [4]",binds
same,binding result,"secreted, soluble furin [1]",binds
B11,Ki,"secreted, soluble Kex2 [5]",0.036 nM
same,Ki,"secreted, soluble furin [6]",0.53 nM
same,Ki,human PC7,2.9 nM
B12,binding result,"secreted, soluble furin [1]",binds
B13,binding result,"secreted, soluble furin [1]",binds
B14,Ki,"secreted, soluble Kex2 [2]",1.6 nM
same,Ki ratio (to R4K1- template),"secreted, soluble Kex2 [2]",0.625
same,Ki,"secreted, soluble furin [3]",29 nM
same,Ki ratio (to R4K1- template),"secreted, soluble furin [3]",0.769
B15,binding result,"secreted, soluble furin [1]",binds
B16,fold decrease of Ka relative to M4R1-eglin,"secreted, soluble Kex2 [7]",13.2 fold
same,fold decrease of Ka relative to M4R1-eglin,"secreted, soluble furin [8]",4.7 fold
same,Ki,"secreted, soluble Kex2 [9]",4.5 nM
same,Ki,"secreted, soluble furin [10]",17000 nM
B17,Ki,"secreted, soluble Kex2 [5]",1 nM
same,Ki,"secreted, soluble furin [6]",1.6 nM
same,Ki,human PC7,1.4 nM
B18,fold increase in affinity relative to L1-eglin,"secreted, soluble Kex2 [7]",5 fold
same,fold enhancement of affinity relative to L1-eglin,"secreted, soluble furin [8]",2 to 3 fold
same,Ki,"secreted, soluble Kex2 [9]",100000 nM
same,Ki,"secreted, soluble furin [10]",56000 nM
B19,Ki,"secreted, soluble Kex2 [5]",0.21 nM
same,Ki,"secreted, soluble furin [6]",4.8 nM
same,Ki,human PC7,2.5 nM
B20,Ki,"secreted, soluble Kex2 [5]",1.2 nM
same,Ki,"secreted, soluble furin [6]",10 nM
same,Ki,human PC7,0.47 nM
B21,binding result,"secreted, soluble furin [1]",binds
B22,Ki,"secreted, soluble Kex2 [2]",1 nM
same,Ki ratio (to R4R1- template),"secreted, soluble Kex2 [2]",1.1
same,Ki,"secreted, soluble furin [3]",1.3 nM
same,Ki ratio (to R4R1- template),"secreted, soluble furin [3]",0.526
same,fold increase in affinity (relative to R4R1-eglin),"secreted, soluble furin [3]",~2 fold
same,Ki,"secreted, soluble Kex2 [5]",1 nM
same,Ki,"secreted, soluble furin [6]",1.8 nM
same,Ki,human PC7,2.9 nM
